From IntAct's records for PubMed 22512862

B1: Phosphocarrier protein HPr (Bacillus subtilis), P08877 (parent)
chain: MAQKTFKVTADSGIHARPATVLVQTASKYDADVNLEYNGKTVNLKSIMGVMSLGIAKGAEITISASGADENDALNALEETMKSEGLGE
partner: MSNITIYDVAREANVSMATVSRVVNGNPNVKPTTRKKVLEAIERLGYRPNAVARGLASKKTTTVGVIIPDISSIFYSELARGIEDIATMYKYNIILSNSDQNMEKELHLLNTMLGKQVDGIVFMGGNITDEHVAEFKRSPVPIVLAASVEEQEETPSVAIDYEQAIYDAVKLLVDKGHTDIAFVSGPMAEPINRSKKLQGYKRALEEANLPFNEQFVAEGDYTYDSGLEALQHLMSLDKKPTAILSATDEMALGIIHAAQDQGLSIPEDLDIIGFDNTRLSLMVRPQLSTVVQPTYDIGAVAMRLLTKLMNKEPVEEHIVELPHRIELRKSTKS

Variants of: B1
Settings: with ccpa_bacsu ccpA

Row | effect of a mutation on the interaction | Variant
1 | disrupting interaction | MAQKTFKVTADSGIHARPATVLVQTASKYDADVNLEYNGKTVNLKAIMGVMSLGIAKGAEITISASGADENDALNALEETMKSEGLGE
